Data on two molecules can be found in publication PMC10613268, “Shade-induced RTFL/DVL peptides negatively regulate the shade response by directly interacting with BSKs in Arabidopsis” (Nature Communications, 2023).

What all share (conditions): both partners purified
For experiment [1], the target named is T1, GST-BSK6 (Arabidopsis, UniProt Q9M324 1-490).
T1 construct: BSK6, Arabidopsis; full-length coding region cloned into pGEX4-T-1; source: E. coli BL21 (DB3); not shown: GST, N-terminal, kept
T1 sequence (Q9M324 whole entry): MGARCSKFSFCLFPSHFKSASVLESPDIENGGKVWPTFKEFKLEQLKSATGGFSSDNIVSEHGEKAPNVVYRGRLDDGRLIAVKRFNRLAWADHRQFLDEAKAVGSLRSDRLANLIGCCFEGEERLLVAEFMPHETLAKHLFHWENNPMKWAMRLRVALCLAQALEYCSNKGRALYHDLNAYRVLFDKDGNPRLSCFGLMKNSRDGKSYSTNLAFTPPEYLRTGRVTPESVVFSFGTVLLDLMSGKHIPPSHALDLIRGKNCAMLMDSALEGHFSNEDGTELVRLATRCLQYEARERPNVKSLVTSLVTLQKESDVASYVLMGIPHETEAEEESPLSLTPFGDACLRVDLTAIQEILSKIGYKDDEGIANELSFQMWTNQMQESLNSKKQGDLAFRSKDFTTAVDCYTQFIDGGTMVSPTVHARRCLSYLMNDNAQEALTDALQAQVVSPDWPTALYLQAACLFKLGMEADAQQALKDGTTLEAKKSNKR
The experiment is described as follows: pull-down; in vitro (Fig. 4e): Sumo-His-RTFL18 on Ni-NTA beads, then GST or GST-BSK3/BSK6, 4 °C 2 h, 1 × PBS with 1 mM DTT; blot anti-GST, anti-His.

Experiment [2] addresses T2, GST-BSK3 WT (Arabidopsis, UniProt Q8W4L3 1-489).
T2 construct: BSK3, Arabidopsis; full-length coding region cloned into pGEX4-T-1; source: E. coli BL21 (DB3), purified; not shown: GST, N-terminal, kept
Described as above.

Experiment [3] concerns the target T2, GST-BSK3 WT. The experiment is described as follows: pull-down; in vitro (Fig. 4l): purified GST-BSK3 WT on glutathione beads, then His-RTFL18 (WT, M1, M2), 4 °C 2 h, 1 × PBS with 1 mM DTT; blot anti-His, anti-GST.

T2 sequence (Q8W4L3 whole entry): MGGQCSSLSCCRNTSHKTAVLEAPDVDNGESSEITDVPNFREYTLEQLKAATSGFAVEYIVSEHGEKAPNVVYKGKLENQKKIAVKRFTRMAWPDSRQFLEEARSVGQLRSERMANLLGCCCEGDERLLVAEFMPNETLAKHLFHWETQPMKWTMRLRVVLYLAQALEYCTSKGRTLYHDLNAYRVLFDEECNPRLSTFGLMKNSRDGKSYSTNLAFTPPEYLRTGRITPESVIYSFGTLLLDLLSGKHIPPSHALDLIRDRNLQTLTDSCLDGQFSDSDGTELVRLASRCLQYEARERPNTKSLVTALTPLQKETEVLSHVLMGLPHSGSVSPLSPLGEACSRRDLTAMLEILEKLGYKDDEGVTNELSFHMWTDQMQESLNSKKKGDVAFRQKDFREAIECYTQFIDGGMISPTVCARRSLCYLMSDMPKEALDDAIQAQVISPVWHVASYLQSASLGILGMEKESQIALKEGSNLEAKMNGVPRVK

B1: Sumo-His-RTFL18 (peptide, UniProt Q6X5V0 1-51, looked up)
chain: MEMKRVMMSSAERSKEKKRSISRRLGKYMKEQKGRIYIIRRCMVMLLCSHD
notes: RTFL18 (DVL1), Arabidopsis; full-length coding region cloned into a pET-SUMO vector; source: E. coli BL21 (DB3); not shown: SUMO, N-terminal, kept; His, N-terminal, kept
As to B1, the binding result in experiment [1] and in experiment [2] was “binds” throughout.

B2: His-RTFL18 WT (peptide, UniProt Q6X5V0 1-51, looked up)
chain: B1 chain
notes: RTFL18 (DVL1), Arabidopsis; full-length coding region cloned into a pET-SUMO vector; also called 6His-RTFL18 WT (wild type); source: E. coli BL21 (DB3), purified; not shown: His6, N-terminal, kept
On to B2, for which the binding result in experiment [3] is “binds”.
